Molecular target: T1, recombinant human CD2 (biotinylated) (human, UniProt P06729 25-209, biotinylated (site not stated))
T1 construct: also called hCD2-biotin; human recombinant CD2
T1 sequence: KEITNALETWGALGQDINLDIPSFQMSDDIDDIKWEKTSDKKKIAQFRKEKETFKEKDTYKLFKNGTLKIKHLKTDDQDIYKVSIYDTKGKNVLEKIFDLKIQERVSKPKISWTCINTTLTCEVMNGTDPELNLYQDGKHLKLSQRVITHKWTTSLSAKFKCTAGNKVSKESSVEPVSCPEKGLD
Experiment: flow cytometry on LFA3-displaying yeast

- binding result: binds
B1: N-terminal Ig-domain of human LFA3 (Residues 1-93) displayed on the surface of S. cerevisiae (ligand, not shown: small tags and cut ends; large carriers)
chain: FSQQIYGVVYGNVTFHVPSNVPLKEVLWKKQKDKVAELENSEFRAFSSFKNRVYLDTVSGSLTIYNLTSSDEDEYEMESPNITDTMKFFLYVL
